# Measurements published in IntAct's records for PubMed 21187394.
# B1: Protein BRASSINOSTEROID … 1 (Arabidopsis thaliana (Mouse-ear cress)), O22476 (parent)
# chain: MKTFSSFFLSVTTLFFFSFFSLSFQASPSQSLYREIHQLISFKDVLPDKNLLPDWSSNKNPCTFDGVTCRDDKVTSIDLSSKPLNVGFSAVSSSLLSLTGLESLFLSNSHINGSVSGFKCSASLTSLDLSRNSLSGPVTTLTSLGSCSGLKFLNVSSNTLDFPGKVSGGLKLNSLEVLDLSANSISGANVVGWVLSDGCGELKHLAISGNKISGDVDVSRCVNLEFLDVSSNNFSTGIPFLGDCSALQHLDISGNKLSGDFSRAISTCTELKLLNISSNQFVGPIPPLPLKSLQYLSLAENKFTGEIPDFLSGACDTLTGLDLSGNHFYGAVPPFFGSCSLLESLALSSNNFSGELPMDTLLKMRGLKVLDLSFNEFSGELPESLTNLSASLLTLDLSSNNFSGPILPNLCQNPKNTLQELYLQNNGFTGKIPPTLSNCSELVSLHLSFNYLSGTIPSSLGSLSKLRDLKLWLNMLEGEIPQELMYVKTLETLILDFNDLTGEIPSGLSNCTNLNWISLSNNRLTGEIPKWIGRLENLAILKLSNNSFSGNIPAELGDCRSLIWLDLNTNLFNGTIPAAMFKQSGKIAANFIAGKRYVYIKNDGMKKECHGAGNLLEFQGIRSEQLNRLSTRNPCNITSRVYGGHTSPTFDNNGSMMFLDMSYNMLSGYIPKEIGSMPYLFILNLGHNDISGSIPDEVGDLRGLNILDLSSNKLDGRIPQAMSALTMLTEIDLSNNNLSGPIPEMGQFETFPPAKFLNNPGLCGYPLPRCDPSNADGYAHHQRSHGRRPASLAGSVAMGLLFSFVCIFGLILVGREMRKRRRKKEAELEMYAEGHGNSGDRTANNTNWKLTGVKEALSINLAAFEKPLRKLTFADLLQATNGFHNDSLIGSGGFGDVYKAILKDGSAVAIKKLIHVSGQGDREFMAEMETIGKIKHRNLVPLLGYCKVGDERLLVYEFMKYGSLEDVLHDPKKAGVKLNWSTRRKIAIGSARGLAFLHHNCSPHIIHRDMKSSNVLLDENLEARVSDFGMARLMSAMDTHLSVSTLAGTPGYVPPEYYQSFRCSTKGDVYSYGVVLLELLTGKRPTDSPDFGDNNLVGWVKQHAKLRISDVFDPELMKEDPALEIELLQHLKVAVACLDDRAWRRPTMVQVMAMFKEIQAGSGIDSQSTIRSIEDGGFSTIEMVDMSIKEVPEGKL
# partner: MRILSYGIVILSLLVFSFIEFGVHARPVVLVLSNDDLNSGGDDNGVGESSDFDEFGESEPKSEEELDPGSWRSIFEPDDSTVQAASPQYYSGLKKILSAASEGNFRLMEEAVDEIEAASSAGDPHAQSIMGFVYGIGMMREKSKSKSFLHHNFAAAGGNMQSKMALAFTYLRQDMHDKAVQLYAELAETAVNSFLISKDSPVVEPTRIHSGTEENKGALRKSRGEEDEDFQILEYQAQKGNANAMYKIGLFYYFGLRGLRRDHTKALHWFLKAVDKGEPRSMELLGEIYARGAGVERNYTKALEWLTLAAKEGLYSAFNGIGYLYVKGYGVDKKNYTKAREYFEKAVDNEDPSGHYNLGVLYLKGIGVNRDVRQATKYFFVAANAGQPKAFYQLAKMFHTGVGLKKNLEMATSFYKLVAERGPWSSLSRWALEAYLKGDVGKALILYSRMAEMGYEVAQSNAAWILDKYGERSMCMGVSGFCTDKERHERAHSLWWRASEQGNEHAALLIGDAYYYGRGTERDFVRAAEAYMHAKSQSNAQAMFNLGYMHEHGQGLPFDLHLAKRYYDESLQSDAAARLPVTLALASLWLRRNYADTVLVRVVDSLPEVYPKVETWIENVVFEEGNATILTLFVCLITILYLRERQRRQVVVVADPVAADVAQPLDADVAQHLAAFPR
# Variants of: B1
# Conditions: with hrd3a_arath HRD3A
row,Variant,effect of a mutation on the interaction
1,C69Y,increasing interaction strength
2,S662F,increasing interaction strength
